The target in one assay is T1, CXCR1-U2OS (Homo sapiens, UniProt P25024).
T1 construct: host or cells: U2OS-derived CXCR1 cell line, purchased
T1 sequence (P25024 1-350): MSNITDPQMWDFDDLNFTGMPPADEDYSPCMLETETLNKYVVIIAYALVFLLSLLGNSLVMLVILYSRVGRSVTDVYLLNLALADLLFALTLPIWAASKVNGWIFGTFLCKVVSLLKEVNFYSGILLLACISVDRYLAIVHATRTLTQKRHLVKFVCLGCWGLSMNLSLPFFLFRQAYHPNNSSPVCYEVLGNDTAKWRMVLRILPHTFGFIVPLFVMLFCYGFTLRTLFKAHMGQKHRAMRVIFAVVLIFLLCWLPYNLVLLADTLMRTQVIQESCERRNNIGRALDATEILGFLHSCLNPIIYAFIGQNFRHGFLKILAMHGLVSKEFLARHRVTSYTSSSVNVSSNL
The assay is described as follows: Flow cytometry binding to CXCR1 expressing cells. As for the experimental part: (§1) Briefly, a cell line expressing functionally validated CXCR1 derived from U2OS cells was obtained from DiscoveRx and cultured per manufacturer's instructions (Cat#93-0226C3, DiscoveRx Corporation, Freemont, Calif.). The parental cell line U20S was obtained from ATCC and cultured under the same conditions as the CXCR1 cells. Cell culture supernatants from Example 2 above were then tested for binding to cells by flow cytometry. The adherent U20S or CXCR1-U20S cells were dissociated with Accutase (Innovative Cell Technologies, Inc., San Diego, Calif.), neutralized with an equal volume of media containing 10% serum, centrifuged at 1000 g, and resuspended in PBS with 2% BSA. Next, cells were dispensed into microtiter plates to achieve between 30,000 to 300,000 cells per well, centrifuged again, and resuspended in cell culture supernatant containing expressed IgG, or a dilution of IgG-containing cell culture supernatant. A fluorescent-conjugated anti-Human Fc antibody was used to detect binding of the expressedBLV1H12-IL8 fusion proteins to cells.
(In general: In flow cytometry, cells or beads pass a laser one at a time.)

Another assay relates to Parental U2OS. The assay is described as follows: Flow cytometry binding to parental cells. As to conditions: cell culture supernatant containing expressed IgG, anti-Human Fc detection. As for the experimental part: as §1

B1: BLV1H12-IL8: human IL-8 (amino acids 26-99) replacing the knob domain of BLV1H12; heavy chain variable region SEQ ID NO: 38 (antibody)
VH: QVQLRESGPSLVKPSQTLSLTCTASGFSLSDKAVGWVRQAPGKALEWLGSIDTGGNTGYNPGLKSRLSITKDNSKSQVSLSVSSVTTEDSATYYCTSVHQETKKYQSPRSAKELRCQCIKTYSKPFHPKFIKELRVIESGPHCANTEIIVKLSDGRELCLDPKENWVQRVVEKFLKRAENSGSGSYTYNYEWHVDVWGQGLLVTV
light: QAVLNQPSSVSGSLGQRVSITCSGSSSNVGNGYVSWYQLIPGSAPRTLIYGDTSRASGVPDRFSGSRSGNTATLTISSLQAEDEADYFCASAEDSSSNAVFGSGTTLTVLGQPKSPPSVTLFPPSTEELNGNKATLVCLISDFYPGSVTVVWKADGSTITRNVETTRASKQSNSKYAASSYLSLTSSDWKSKGSYSCEVTHEGSTVTKTVKPSECS
For B1, in the assay with CXCR1-U2OS, the “ratio of median fluorescence (IgG binding) of CXCR1-U2OS cells versus U2OS parental cells” value is “has specificity for CXCR1”. Further, the “Median Arbitrary Fluorescence Units (AFU)” value in the assay with CXCR1-U2OS (CXCR1-U2OS cells, cell culture supernatant containing expressed IgG, anti-Human Fc detection) is 707 AFU; in the assay with Parental U2OS it was 76 AFU.

These data come from US20140050720A1, “ULTRALONG COMPLEMENTARITY DETERMINING REGIONS AND USES THEREOF” (THE SCRIPPS RESEARCH INSTITUTE, priority 2012, published 2014).
